Laboratory results published in PMC10397247.

What was measured:
Test in all cases: two-hybrid library CCNG1;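 also: natural log of median RNA to DNA barcode read ratio; higher means stronger binding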
4H496-bN = molecular target: T1, 4H496-bN
T1 chain: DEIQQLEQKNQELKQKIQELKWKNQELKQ

4H3112-bN = molecular target: T2, 4H3112-bN
T2 chain: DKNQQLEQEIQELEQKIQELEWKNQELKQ

4H3070-bN = molecular target: T3, 4H3070-bN
T3 chain: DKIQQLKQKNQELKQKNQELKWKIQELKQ

4H363-bN = molecular target: T4, 4H363-bN
T4 chain: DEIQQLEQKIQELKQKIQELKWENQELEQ

4H470-bN = molecular target: T5, 4H470-bN
T5 chain: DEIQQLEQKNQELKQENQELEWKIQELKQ

4H2745-bN = molecular target: T6, 4H2745-bN
T6 chain: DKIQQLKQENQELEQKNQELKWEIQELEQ

4H2619-bN = molecular target: T7, 4H2619-bN
T7 chain: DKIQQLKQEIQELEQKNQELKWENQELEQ

4H3632-bN = molecular target: T8, 4H3632-bN
T8 chain: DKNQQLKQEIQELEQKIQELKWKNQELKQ

4H2691-bN = molecular target: T9, 4H2691-bN
T9 chain: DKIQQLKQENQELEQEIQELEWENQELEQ

4H3961-bN = molecular target: T10, 4H3961-bN
T10 chain: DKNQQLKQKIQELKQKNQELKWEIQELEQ

4H342-bN = molecular target: T11, 4H342-bN
T11 chain: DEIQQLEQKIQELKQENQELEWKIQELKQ

4H344-bN = molecular target: T12, 4H344-bN
T12 chain: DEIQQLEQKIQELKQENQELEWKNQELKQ

4H3907-bN = molecular target: T13, 4H3907-bN
T13 chain: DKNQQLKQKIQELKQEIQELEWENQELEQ

Binder | interaction score (4H496-bN) | interaction score (4H3112-bN) | interaction score (4H3070-bN) | interaction score (4H363-bN) | interaction score (4H470-bN) | interaction score (4H2745-bN) | interaction score (4H2619-bN) | interaction score (4H3632-bN) | interaction score (4H2691-bN) | interaction score (4H3961-bN) | interaction score (4H342-bN) | interaction score (4H344-bN) | interaction score (4H3907-bN)
DKIQQLKQEIQELEQKNQELKWENQELEQ [4H2619-bN] | -1.66 | 0.149 | -0.245 | -1.48 | -0.608 | -0.673 | 0.209 | -0.529 | -1.49 | -1.65 | 1.23 | 0.255 | -0.483
DKIQQLKQENQELEQEIQELEWENQELEQ [4H2691-bN] | 1.01 |  | -1.24 |  |  |  |  | -1.21 | -0.448 |  | -0.0194 |  | 
